Test results published in the supplement of paper PMC10567573.
± gives the standard deviation.

Assay: protein stability index of a GFP-peptide fusion (GPS, HEK-293T) (PSI 1-6); higher = more stable
Conditions: c terminus: a fixed tail appended
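Also: 24-mer peptide tiles fused after GFP, lentivirally expressed, FACS-sorted into six equal bins by GFP/DsRed ratio, decoded by Illumina sequencing, PSI is the read-weighted mean bin number.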

CAINKVGVSFSTVENELMISYLMF [FAM98B]
protein stability index (treatment: DMSO): 2.63 ± 0.48
protein stability index (treatment: MLN4924 1 uM, 8 h): 2.81 ± 0.41

NRRMVGPDVIPLPHIYGARIKGVE [FAM189A2]
protein stability index (treatment: DMSO): 3.19 ± 0.11
protein stability index (treatment: MLN4924 1 uM, 8 h): 3.15 ± 0.27

CQECGKTFRVSSDLIKHQRIHTEE [ZNF75A]
protein stability index (treatment: DMSO): 5.26 ± 0.4
protein stability index (treatment: MLN4924 1 uM, 8 h): 5.41 ± 0.31

APPRRLRSRKVSCPLTRSNGDLSR [FCHO1]
protein stability index (treatment: DMSO): 4.16 ± 0.17
protein stability index (treatment: MLN4924 1 uM, 8 h): 4.34 ± 0.062

LSDFEECEETGELFEEPAPQALAT [FCHSD1]
protein stability index (treatment: DMSO): 5.21 ± 0.22
protein stability index (treatment: MLN4924 1 uM, 8 h): 5.2 ± 0.23

VMRMLGQTPTKEELDAIIEEVDED [TNNC2]
protein stability index (treatment: DMSO): 5.41 ± 0.28
protein stability index (treatment: MLN4924 1 uM, 8 h): 5.34 ± 0.27

QVLRFYAIWDDTDSMYGECRTYII [EFHC1]
protein stability index (treatment: DMSO): 2.91 ± 1
protein stability index (treatment: MLN4924 1 uM, 8 h): 2.58 ± 0.47

RFLLYTNENPNNFQILLLSDPSTI [PNLIPRP1]
protein stability index (treatment: DMSO): 2.94 ± 1
protein stability index (treatment: MLN4924 1 uM, 8 h): 2.57 ± 0.61

ERNFWDPSPQLDTQQEIKLCQKSN [WDR41]
protein stability index (treatment: DMSO): 3.92 ± 0.34
protein stability index (treatment: MLN4924 1 uM, 8 h): 3.94 ± 0.37

VELPMNSSNGNDNGNGKNGGLEHV [BNIP3L]
protein stability index (treatment: DMSO): 5.25 ± 0.17
protein stability index (treatment: MLN4924 1 uM, 8 h): 5.23 ± 0.22

KVPSEAPSPMPTHRSYLGPGSTSP [SLC6A17]
protein stability index (treatment: DMSO): 4.66 ± 0.069
protein stability index (treatment: MLN4924 1 uM, 8 h): 4.71 ± 0.32

ERPGAEGAPLLPPPLPPPSPPGSG [ACBD3]
protein stability index (treatment: DMSO): 5.54 ± 0.24
protein stability index (treatment: MLN4924 1 uM, 8 h): 5.47 ± 0.19

YLSLLRMYLSPPSIHCLGPIKLEL [VPS39]
protein stability index (treatment: DMSO): 3.26 ± 0.43
protein stability index (treatment: MLN4924 1 uM, 8 h): 2.94 ± 0.16

TAFNFFKMAVSRHLTRGRKMAHVI [BRF1]
protein stability index (treatment: DMSO): 2.66 ± 0.61
protein stability index (treatment: MLN4924 1 uM, 8 h): 2.33 ± 0.36

RSGGPPPKKSAPSAVARSNSWMGS [RBMY1A1]
protein stability index (treatment: DMSO): 3.7 ± 0.27
protein stability index (treatment: MLN4924 1 uM, 8 h): 3.64 ± 0.22

EPFSARVLVLCVFNSILPGVLILF [SOAT1]
protein stability index (treatment: DMSO): 3.05 ± 0.14
protein stability index (treatment: MLN4924 1 uM, 8 h): 3.06 ± 0.22

VRELRIAFREFDRDRDGRITVAEL [CABP4]
protein stability index (treatment: DMSO): 2.7 ± 0.49
protein stability index (treatment: MLN4924 1 uM, 8 h): 2.98 ± 0.17

KMGGKDFSFRYQQELEEEIKELYE [ATL3]
protein stability index (treatment: DMSO): 2.52 ± 0.51
protein stability index (treatment: MLN4924 1 uM, 8 h): 2.87 ± 0.32

FDDCLYALCVVDTIKRSSQTGEWQ [GFOD1]
protein stability index (treatment: DMSO): 2.09 ± 0.42
protein stability index (treatment: MLN4924 1 uM, 8 h): 2.29 ± 0.25

YTVLGDTLIDGGEHYWEVRYEPDS [FSD1]
protein stability index (treatment: DMSO): 3.02 ± 0.2
protein stability index (treatment: MLN4924 1 uM, 8 h): 2.97 ± 0.34

QLHIFNTLRSHLIDKGMLTSTTED [CDS2]
protein stability index (treatment: DMSO): 2.93 ± 0.2
protein stability index (treatment: MLN4924 1 uM, 8 h): 3.09 ± 0.26

QVQSMVVGEVLKDIETACKLLNIT [SPDEF]
protein stability index (treatment: DMSO): 2.42 ± 0.36
protein stability index (treatment: MLN4924 1 uM, 8 h): 2.39 ± 0.35

KLNLPDYHKIIKNPMDMGTIKKRL [BRD3]
protein stability index (treatment: DMSO): 2.41 ± 0.17
protein stability index (treatment: MLN4924 1 uM, 8 h): 2.48 ± 0.42

TGVELAPRSAEPGYLVTKVVAVDR [PCDHGA10]
protein stability index (treatment: DMSO): 3.94 ± 0.34
protein stability index (treatment: MLN4924 1 uM, 8 h): 3.93 ± 0.084

DVGENLTVPDEFTVEERQTGMWWR [SLC25A25]
protein stability index (treatment: DMSO): 4.18 ± 0.14
protein stability index (treatment: MLN4924 1 uM, 8 h): 4.16 ± 0.28

EMQLSEVQIKTWFQNRRMKHKRQM [VENTX]
protein stability index (treatment: DMSO): 3.26 ± 0.16
protein stability index (treatment: MLN4924 1 uM, 8 h): 3.19 ± 0.37

ARQHALYIWEKSIGNLVKILHGTR [RBBP5]
protein stability index (treatment: DMSO): 2.26 ± 0.36
protein stability index (treatment: MLN4924 1 uM, 8 h): 2.5 ± 0.41

LSRKKRLELDDNLDTERPVQKRAR [TRIB3]
protein stability index (treatment: DMSO): 4.79 ± 0.14
protein stability index (treatment: MLN4924 1 uM, 8 h): 4.62 ± 0.37

PGGGDICMYRHALPPGFVLKKDKK [ZC3H15]
protein stability index (treatment: DMSO): 4.29 ± 0.2
protein stability index (treatment: MLN4924 1 uM, 8 h): 4.04 ± 0.1

VSNMSGPSGEEEAKVGPGLPDGCQ [CBY2]
protein stability index (treatment: DMSO): 5.46 ± 0.12
protein stability index (treatment: MLN4924 1 uM, 8 h): 5.16 ± 0.16

PQGSGFCLGQLNLEQRSESVRRTR [SMAD6]
protein stability index (treatment: DMSO): 4.39 ± 0.26
protein stability index (treatment: MLN4924 1 uM, 8 h): 4.67 ± 0.43

TRLQDCYVDSPALTNIWMARTCAK [C22orf31]
protein stability index (treatment: DMSO): 2.47 ± 0.2
protein stability index (treatment: MLN4924 1 uM, 8 h): 2.69 ± 0.11

PIDPAAWVSHTAAMTGTFPAYGMS [DVL3]
protein stability index (treatment: DMSO): 2.73 ± 0.36
protein stability index (treatment: MLN4924 1 uM, 8 h): 2.75 ± 0.18

RVLLTGLHAVADIHCENCKTTLGW [YPEL3]
protein stability index (treatment: DMSO): 2.42 ± 0.69
protein stability index (treatment: MLN4924 1 uM, 8 h): 2.27 ± 0.29

EAMLYHNQTAELRELLEFTHMYLQ [P3H4]
protein stability index (treatment: DMSO): 2.48 ± 0.37
protein stability index (treatment: MLN4924 1 uM, 8 h): 2.69 ± 0.62

DIEMSMRGDIFERIVHLQETCDLG [NLN]
protein stability index (treatment: DMSO): 3.26 ± 0.47
protein stability index (treatment: MLN4924 1 uM, 8 h): 3.22 ± 0.36
